In PMC8727025, “Src activates retrograde membrane traffic through phosphorylation of GBF1” (eLife, 2021):

B1: C-terminal V5-tagged Arf1 (Arf1-V5) (natural protein)
chain: not shown
notes: Arf1 small GTPase (ADP-ribosylation factor 1); The assay was done in the presence of GDP; source: HEK293T cells expressing Arf1-V5, in lysate (pre-cleared with agarose beads); not shown: V5, C-terminal, kept
B2: Arf1-del17-His, recombinant Arf1 deleted of the first 17 amino acids (domain or fragment)
chain: not shown
notes: Arf1 small GTPase deleted of the first 17 amino acids; The assay was done in the presence of GDP; also called Arf1-His; recombinant Arf1-del17 protein; source: bacterially produced and purified

Experiments:
[1] = molecular target: T1, GFP-GBF1 (wild type) immunoprecipitated from cells expressing active SrcEG (tyrosine-phosphorylated GBF1) (human, UniProt Q92538-1 1-1859, phosphotyrosine at Y876 and Y898 and at eight other tyrosines (10 in all by mass spectrometry; positions 317, 377, 515 and five tyrosines in HDS2/3 are named)); assay: cell-based or functional assay
T1 sequence (Q92538 other isoform, or with tags, fused parts or gaps): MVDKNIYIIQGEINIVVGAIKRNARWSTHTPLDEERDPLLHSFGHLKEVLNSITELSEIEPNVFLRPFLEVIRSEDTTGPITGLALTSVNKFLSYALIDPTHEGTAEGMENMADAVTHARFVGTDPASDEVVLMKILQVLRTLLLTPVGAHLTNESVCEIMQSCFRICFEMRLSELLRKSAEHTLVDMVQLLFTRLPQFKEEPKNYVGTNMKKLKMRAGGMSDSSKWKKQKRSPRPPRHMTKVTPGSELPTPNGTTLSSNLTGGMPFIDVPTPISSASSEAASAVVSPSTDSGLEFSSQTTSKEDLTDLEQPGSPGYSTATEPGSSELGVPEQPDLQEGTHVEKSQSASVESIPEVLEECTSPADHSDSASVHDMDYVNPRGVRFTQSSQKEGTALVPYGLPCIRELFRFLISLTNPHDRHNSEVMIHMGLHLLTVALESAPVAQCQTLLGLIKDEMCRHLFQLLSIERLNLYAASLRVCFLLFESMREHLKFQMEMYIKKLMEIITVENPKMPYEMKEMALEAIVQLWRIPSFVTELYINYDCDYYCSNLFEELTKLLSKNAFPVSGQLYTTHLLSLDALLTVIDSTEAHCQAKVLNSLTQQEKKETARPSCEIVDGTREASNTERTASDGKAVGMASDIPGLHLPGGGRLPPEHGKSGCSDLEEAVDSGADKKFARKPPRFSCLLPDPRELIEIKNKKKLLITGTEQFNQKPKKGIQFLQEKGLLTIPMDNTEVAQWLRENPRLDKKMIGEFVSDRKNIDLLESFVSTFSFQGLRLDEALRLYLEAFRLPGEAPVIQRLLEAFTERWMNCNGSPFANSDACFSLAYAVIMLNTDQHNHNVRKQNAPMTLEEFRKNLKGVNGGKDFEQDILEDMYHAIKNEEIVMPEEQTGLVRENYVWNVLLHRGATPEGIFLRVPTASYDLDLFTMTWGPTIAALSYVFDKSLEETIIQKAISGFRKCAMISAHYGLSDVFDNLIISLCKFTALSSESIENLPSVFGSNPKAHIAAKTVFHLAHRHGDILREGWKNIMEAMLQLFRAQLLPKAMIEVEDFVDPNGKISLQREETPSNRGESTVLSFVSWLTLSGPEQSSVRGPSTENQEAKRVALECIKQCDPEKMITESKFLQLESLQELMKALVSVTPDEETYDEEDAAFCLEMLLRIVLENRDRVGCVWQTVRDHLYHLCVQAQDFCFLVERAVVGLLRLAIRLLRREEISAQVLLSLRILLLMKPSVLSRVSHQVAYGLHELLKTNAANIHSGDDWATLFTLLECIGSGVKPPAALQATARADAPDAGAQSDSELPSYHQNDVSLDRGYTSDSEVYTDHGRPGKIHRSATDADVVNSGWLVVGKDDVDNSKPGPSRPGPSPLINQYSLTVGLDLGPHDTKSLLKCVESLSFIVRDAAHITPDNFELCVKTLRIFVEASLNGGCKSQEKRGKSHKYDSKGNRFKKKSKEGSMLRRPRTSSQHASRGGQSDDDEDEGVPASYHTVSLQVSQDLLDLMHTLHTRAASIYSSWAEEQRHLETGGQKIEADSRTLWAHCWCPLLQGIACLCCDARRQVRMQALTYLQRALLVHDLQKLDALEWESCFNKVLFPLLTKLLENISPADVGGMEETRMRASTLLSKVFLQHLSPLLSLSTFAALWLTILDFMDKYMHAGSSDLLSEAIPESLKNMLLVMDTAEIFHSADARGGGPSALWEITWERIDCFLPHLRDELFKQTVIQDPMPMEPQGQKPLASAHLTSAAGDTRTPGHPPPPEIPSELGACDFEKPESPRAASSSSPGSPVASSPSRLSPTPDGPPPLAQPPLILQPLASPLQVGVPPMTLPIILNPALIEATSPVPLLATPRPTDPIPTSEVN

[2] = molecular target: T1, GFP-GBF1 (wild type) immunoprecipitated …; assay: pull-down; in vitro Arf1 binding assay: NGFP-GBF1 immunoprecipitated on GFP-trap agarose beads from cells expressing SrcKM or SrcEG, incubated with 4 mg lysate of HEK293T cells expressing Arf1-V5 (pre-cleared) for 1 hr at 4°C in the presence of GDP; washed three times with HKMT buffer (20 mM HEPES pH 7.4, 0.1 M KCl, 1 mM MgCl2, 0.5% Triton X-100); bound Arf1 by immunoblot; settings: one partner purified
[3] = molecular target: T2, GFP-GBF1-Y898F immunoprecipitated from cells expressing active SrcEG (human, UniProt Q92538-1 1-1859, Y898F); assay: pull-down; in vitro Arf1 binding assay: NGFP-GBF1 (wild type or mutant) immunoprecipitated on GFP-trap agarose beads from cells expressing SrcKM or SrcEG, incubated with 10 µg recombinant Arf1-del17 protein for 1 hr at 4°C in the presence of GDP; washed three times with HKMT buffer (20 mM HEPES pH 7.4, 0.1 M KCl, 1 mM MgCl2, 0.5% Triton X-100); bound Arf1 by western blot; settings: both partners purified
T2 construct: GBF1, human, with Y898F; source: expressed in cells coexpressing active SrcEG, immunoprecipitated on GFP-trap agarose beads; not shown: GFP, N-terminal, kept
T2 sequence (Q92538 other isoform, or with tags, fused parts or gaps Y898F | Y898F | Y898F Y898F): as the sequence (Q92538 other isoform, or with tags, fused parts or gaps) above, with Y898F counted along it

[4] = molecular target: T3, GFP-GBF1-Y876F immunoprecipitated from cells expressing active SrcEG (human, UniProt Q92538-1 1-1859, Y876F); assay: as above; settings: both partners purified
T3 construct: GBF1, human, with Y876F; source: expressed in cells coexpressing active SrcEG, immunoprecipitated on GFP-trap agarose beads; not shown: GFP, N-terminal, kept
T3 sequence (Q92538 other isoform, or with tags, fused parts or gaps Y876F | Y876F | Y876F Y876F): as the sequence (Q92538 other isoform, or with tags, fused parts or gaps) above, with Y876F counted along it

[5] = molecular target: T4, GFP-GBF1-Y876.898F double mutant immunoprecipitated from cells expressing active SrcEG (human, UniProt Q92538-1 1-1859, Y876F | Y898F); assay: as above; settings: both partners purified
T4 construct: GBF1, human, with Y876F and Y898F; source: expressed in cells coexpressing active SrcEG, immunoprecipitated on GFP-trap agarose beads; not shown: GFP, N-terminal, kept
T4 sequence (Q92538 other isoform, or with tags, fused parts or gaps Y876F | Y898F | Y876F | Y898F | mutant): as the sequence (Q92538 other isoform, or with tags, fused parts or gaps) above, with Y876F, Y898F counted along it

Binder	Arf1-GTP levels (GGA3 PBD bead pull-down of endogenous Arf1-GTP) in HEK-IS cells expressing GFP-GBF1, after imidazole activation of Src8A7F, 0 to 45 min, peak at 10 min [1] [fold]	fold increase in bound Arf1-V5 against GFP-GBF1 from SrcKM cells [2] [fold]	percent reduction of bound Arf1 against wild-type GFP-GBF1 from SrcEG cells [3] [%]	percent reduction of bound Arf1 against wild-type GFP-GBF1 from SrcEG cells [4] [%]	percent reduction of bound Arf1 against wild-type GFP-GBF1 from SrcEG cells [5] [%]
B1	~3	2	–	–	–
B2	–	–	60	40	> 70
